Measurements reported in patent US7109299.
Bridge positions count the residues as written; N and C are the ends. Ends that are not written are not given here.

How the values were obtained:
[1] = target: T1, IL-5RαECD, extracellular domain (ECD) of the human IL-5 receptor α chain, soluble (human) (UniProt Q01344); assay: competition with [125I] IL-5 for binding to immobilised IL-5Rα ECD; peptide after 10 days, disulfide-linked dimer
T1 sequence (Q01344 whole entry, looked up): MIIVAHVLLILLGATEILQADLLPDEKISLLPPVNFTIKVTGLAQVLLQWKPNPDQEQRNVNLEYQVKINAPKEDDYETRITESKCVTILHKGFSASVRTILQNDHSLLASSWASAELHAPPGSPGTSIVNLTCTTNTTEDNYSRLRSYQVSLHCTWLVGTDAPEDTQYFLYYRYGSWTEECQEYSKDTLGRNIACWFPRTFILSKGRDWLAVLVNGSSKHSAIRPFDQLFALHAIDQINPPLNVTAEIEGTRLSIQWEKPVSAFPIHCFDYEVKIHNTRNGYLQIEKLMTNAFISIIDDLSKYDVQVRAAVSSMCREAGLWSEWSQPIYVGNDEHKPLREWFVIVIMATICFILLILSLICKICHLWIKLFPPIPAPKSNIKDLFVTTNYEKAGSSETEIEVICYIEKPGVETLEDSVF

[2] = target: T1, IL-5RαECD, extracellular domain (ECD) of the human IL-5 receptor α chain, soluble (human); assay: scintillation proximity competition assay, dimer against 20 pM [125I] IL-5 on IL-5Rα coated beads

Row | Binder | IC50 [1] [pM] | SPA pIC50 [2]
1 | TGGGDGYVCVEWARCPTCK (disulfide 15-18; also: homodimer linked by a Cys9-Cys9 interchain disulfide, disulfide at 9, other end not in the chain) [dimeric form of AF17362 (spontaneously formed disulfide-linked dimer)] | 550 | 
2 | H-EGYVCVEFARCPTCR-NH2 (disulfide (positions not given here); also: dimer, intramolecular and intermolecular disulfides, places not given here) |  | 6.4
3 | H-EGYVCVEWARCPTCR-NH2 (disulfide (positions not given here); also: dimer, intramolecular and intermolecular disulfide linkages, places not given here) |  | 8.1
